The values below come from patent US20230242592A1, “IDENTIFICATION OF […] PEPTIDES AND USES THEREOF” (priority 2020, published 2023).

Test [1] addresses RBD-His (Sino Biological) (SARS-CoV-2) (UniProt P0DTC2). Nature of the test: BLI (summary of the working examples).
The target is the same in test [2]. Nature of the test: BLI steady-state, CR3022 on anti-human IgG Fc tips, RBD-His as analyte.

pKd: −log10 of the molar value.

The pKd is the Kd on a negative log10 scale, so that one unit is a factor of ten. Read a low pKd as a high Kd. Take “neutralizing monoclonal IgG antibody against the SARS-CoV-2 spike glycoprotein (CR3022, antibodies-online)”: the pKd in test [1] was 8.22; in test [2], 8.07.
